Results taken from patent US20140044644A1 (UNIVERSITY OF ZURICH, published 2014).

B1: ankG in mouse brain homogenate (other, UniProt G5E8K5 1-1961, looked up)
chain: MSEEPKEKPAKPAHRKRKGKKSDANASYLRAARAGHLEKALDYIKNGVDVNICNQNGLNALHLASKEGHVEVVSELLQREANVDAATKKGNTALHIASLAGQAEVVKVLVTNGANVNAQSQNGFTPLYMAAQENHLEVVRFLLDNGASQSLATEDGFTPLAVALQQGHDQVVSLLLENDTKGKVRLPALHIAARKDDTKAAALLLQNDTNADVESKSGFTPLHIAAHYGNINVATLLLNRAAAVDFTARNDITPLHVASKRGNANMVKLLLDRGAKIDAKTRDGLTPLHCGARSGHEQVVEMLLDRSAPILSKTKNGLSPLHMATQGDHLNCVQLLLQHNVPVDDVTNDYLTALHVAAHCGHYKVAKVLLDKKASPNAKALNGFTPLHIACKKNRIRVMELLLKHGASIQAVTESGLTPIHVAAFMGHVNIVSQLMHHGASPNTTNVRGETALHMAARSGQAEVVRYLVQDGAQVEAKAKDDQTPLHISARLGKADIVQQLLQQGASPNAATTSGYTPLHLAAREGHEDVAAFLLDHGASLSITTKKGFTPLHVAAKYGKLEVASLLLQKSASPDAAGKSGLTPLHVAAHYDNQKVALLLLDQGASPHAAAKNGYTPLHIAAKKNQMDIATSLLEYGADANAVTRQGIASVHLAAQEGHVDMVSLLLSRNANVNLSNKSGLTPLHLAAQEDRVNVAEVLVNQGAHVDAQTKMGYTPLHVGCHYGNIKIVNFLLQHSAKVNAKTKNGYTALHQAAQQGHTHIINVLLQNNASPNELTVNGNTALAIARRLGYISVVDTLKVVTEEIMTTTTITEKHKMNVPETMNEVLDMSDDEVRKASAPEKLSDGEYISDGEEGDKCTWFKIPKVQEVLVKSEDAITGDTDKYLGPQDLKELGDDSLPAEGYVGFSLGARSASLRSFSSDRSYTLNRSSYARDSMMIEELLVPSKEQHLTFTREFDSDSLRHYSWAADTLDNVNLVSSPVHSGFLVSFMVDARGGSMRGSRHHGMRIIIPPRKCTAPTRITCRLVKRHKLANPPPMVEGEGLASRLVEMGPAGAQFLGPVIVEIPHFGSMRGKERELIVLRSENGETWKEHQFDSKNEDLAELLNGMDEELDSPEELGTKRICRIITKDFPQYFAVVSRIKQESNQIGPEGGILSSTTVPLVQASFPEGALTKRIRVGLQAQPVPEETVKKILGNKATFSPIVTVEPRRRKFHKPITMTIPVPPPSGEGVSNGYKGDATPNLRLLCSITGGTSPAQWEDITGTTPLTFIKDCVSFTTNVSARFWLADCHQVLETVGLASQLYRELICVPYMAKFVVFAKTNDPVESSLRCFCMTDDRVDKTLEQQENFEEVARSKDIEVLEGKPIYVDCYGNLAPLTKGGQQLVFNFYSFKENRLPFSIKIRDTSQEPCGRLSFLKEPKTTKGLPQTAVCNLNITLPAHKKAEKADRRQSFASLALRKRYSYLTEPSMSPQSPCERTDIRMAIVADHLGLSWTELARELNFSVDEINQIRVENPNSLISQSFMLLKKWVTRDGKNATTDALTSVLTKINRIDIVTLLEGPIFDYGNISGTRSFADENNVFHDPVDGHPSFQVELETPMGLYCTPPNPFQQDDHFSDISSIESPFRTPSRLSDGLVPSQGNIEHPTGGPPVVTAEDTSLEDSKMDDSVTVTDPADPLDVDESQLKDLCQSECAQCWASVPGIPNDGRQAEPLRPQTRKVGMSSEQQEKGKSGPDEEVTEDKVKSLFEDIQLEEVEAEEMTEDQGQAMLNRVQRAELAMSSLAGWQNETPSGSLESPAQARRLTGGLLDRLDDSSDQARDSITSYLTGEPGKIEANGNHTAEVIPEAKAKPYFPESQNDIGKQSIKENLKPKTHGCGRTEEPVSPLTAYQKSLEETSKLVIEDAPKPCVPVGMKKMTRTTADGKARLNLQEEEGSTRSEPKQGEGYKVKTKKEIRNVEKKTH
notes: also called ankG (arcAbeta, non-transgenic and APP deficient mouse brains)
B2: Caspr in human AD hippocampus homogenate (other, UniProt P78357 20-1384, looked up)
chain: WGYYGCDEELVGPLYARSLGASSYYSLLTAPRFARLHGISGWSPRIGDPNPWLQIDLMKKHRIRAVATQGSFNSWDWVTRYMLLYGDRVDSWTPFYQRGHNSTFFGNVNESAVVRHDLHFHFTARYIRIVPLAWNPRGKIGLRLGLYGCPYKADILYFDGDDAISYRFPRGVSRSLWDVFAFSFKTEEKDGLLLHAEGAQGDYVTLELEGAHLLLHMSLGSSPIQPRPGHTTVSAGGVLNDQHWHYVRVDRFGRDVNFTLDGYVQRFILNGDFERLNLDTEMFIGGLVGAARKNLAYRHNFRGCIENVIFNRVNIADLAVRRHSRITFEGKVAFRCLDPVPHPINFGGPHNFVQVPGFPRRGRLAVSFRFRTWDLTGLLLFSRLGDGLGHVELTLSEGQVNVSIAQSGRKKLQFAAGYRLNDGFWHEVNFVAQENHAVISIDDVEGAEVRVSYPLLIRTGTSYFFGGCPKPASRWDCHSNQTAFHGCMELLKVDGQLVNLTLVEGRRLGFYAEVLFDTCGITDRCSPNMCEHDGRCYQSWDDFICYCELTGYKGETCHTPLYKESCEAYRLSGKTSGNFTIDPDGSGPLKPFVVYCDIRENRAWTVVRHDRLWTTRVTGSSMERPFLGAIQYWNASWEEVSALANASQHCEQWIEFSCYNSRLLNTAGGYPYSFWIGRNEEQHFYWGGSQPGIQRCACGLDRSCVDPALYCNCDADQPQWRTDKGLLTFVDHLPVTQVVIGDTNRSTSEAQFFLRPLRCYGDRNSWNTISFHTGAALRFPPIRANHSLDVSFYFRTSAPSGVFLENMGGPYCQWRRPYVRVELNTSRDVVFAFDVGNGDENLTVHSDDFEFNDDEWHLVRAEINVKQARLRVDHRPWVLRPMPLQTYIWMEYDQPLYVGSAELKRRPFVGCLRAMRLNGVTLNLEGRANASEGTSPNCTGHCAHPRLPCFHGGRCVERYSYYTCDCDLTAFDGPYCNHDIGGFFEPGTWMRYNLQSALRSAAREFSHMLSRPVPGYEPGYIPGYDTPGYVPGYHGPGYRLPDYPRPGRPVPGYRGPVYNVTGEEVSFSFSTSSAPAVLLYVSSFVRDYMAVLIKDDGTLQLRYQLGTSPYVYQLTTRPVTDGQPHSINITRVYRNLFIQVDYFPLTEQKFSLLVDSQLDSPKALYLGRVMETGVIDPEIQRYNTPGFSGCLSGVRFNNVAPLKTHFRTPRPMTAELAEALRVQGELSESNCGAMPRLVSEVPPELDPWYLPPDFPYYHDEGWVAILLGFLVAFLLLGLVGMLVLFYLQNHRYKGSYHTNEPKAAHEYHPGSKPPLPTSGPAQVPTPTAAPNQAPASAPAPAPTPAPAPGPRDQNLPQILEESRSE

How the values were obtained:
[1] = molecular target: ankB in mouse brain homogenate (mouse, UniProt Q8C8R3 1-3898, limits assumed); assay: co-immunoprecipitation (ankG immunoprecipitate) from mouse brains, Western blot
Description: (§1) FIG. 6: AnkG interacts directly with APP in the brain [0020] (a) AnkG and APP immunoprecipitates from human frontal cortex were immunoblotted with specific antibodies against ankG, APP and ankB. Immunoprecipitates with non-immune IgG served as a negative control. Note that APP co-immunoprecipitated with ankG and vice versa. Human brain homogenate (C) was used as positive control. (b) AnkG immunoprecipitates were obtained from arcAbeta (TG), non-transgenic (NTG) littermates and APP deficient (−/−) mouse brains. Note that APP, but not ankB, co-immunoprecipitated with ankG. Mouse brain homogenate (C) was used as positive control. (c) Primary rat hippocampal cultures were stained with antibodies against the C-terminal portion of APP (green) and with antibodies against ankG (red). Note the presence of both ankG and APP in the AIS. Scale bar=10 μm (upper panels) and Scale bar=30 μm (lower panels). […] AnkG binding to BSA-coated wells (2 mg/ml) served as negative control. Mean values (OD₄₅₀)±SEM are shown (n=6). (e) AnkG and APP immunoprecipitates from human AD hippocampus were immunoblotted with specific antibodies against APP and Caspr and L1. Immunoprecipitates with non-immune IgG served as a negative control. As already shown in (a) APP co-immunoprecipitated with ankG. Note the absence of Caspr and L1 from the immunoprecipitates. AD hippocampus homogenate (+) was used as positive control. […]

[2] = molecular target: T1, ankG in human brain homogenate (human, UniProt Q12955 1-4377, limits assumed); assay: co-immunoprecipitation (ankG immunoprecipitate) from human AD hippocampus, Western blot
T1 construct: Endogenous protein in co-immunoprecipitation; also called ankG (human frontal cortex, hippocampus, AD hippocampus)
Description: as §1

T1 sequence (Q12955 whole entry): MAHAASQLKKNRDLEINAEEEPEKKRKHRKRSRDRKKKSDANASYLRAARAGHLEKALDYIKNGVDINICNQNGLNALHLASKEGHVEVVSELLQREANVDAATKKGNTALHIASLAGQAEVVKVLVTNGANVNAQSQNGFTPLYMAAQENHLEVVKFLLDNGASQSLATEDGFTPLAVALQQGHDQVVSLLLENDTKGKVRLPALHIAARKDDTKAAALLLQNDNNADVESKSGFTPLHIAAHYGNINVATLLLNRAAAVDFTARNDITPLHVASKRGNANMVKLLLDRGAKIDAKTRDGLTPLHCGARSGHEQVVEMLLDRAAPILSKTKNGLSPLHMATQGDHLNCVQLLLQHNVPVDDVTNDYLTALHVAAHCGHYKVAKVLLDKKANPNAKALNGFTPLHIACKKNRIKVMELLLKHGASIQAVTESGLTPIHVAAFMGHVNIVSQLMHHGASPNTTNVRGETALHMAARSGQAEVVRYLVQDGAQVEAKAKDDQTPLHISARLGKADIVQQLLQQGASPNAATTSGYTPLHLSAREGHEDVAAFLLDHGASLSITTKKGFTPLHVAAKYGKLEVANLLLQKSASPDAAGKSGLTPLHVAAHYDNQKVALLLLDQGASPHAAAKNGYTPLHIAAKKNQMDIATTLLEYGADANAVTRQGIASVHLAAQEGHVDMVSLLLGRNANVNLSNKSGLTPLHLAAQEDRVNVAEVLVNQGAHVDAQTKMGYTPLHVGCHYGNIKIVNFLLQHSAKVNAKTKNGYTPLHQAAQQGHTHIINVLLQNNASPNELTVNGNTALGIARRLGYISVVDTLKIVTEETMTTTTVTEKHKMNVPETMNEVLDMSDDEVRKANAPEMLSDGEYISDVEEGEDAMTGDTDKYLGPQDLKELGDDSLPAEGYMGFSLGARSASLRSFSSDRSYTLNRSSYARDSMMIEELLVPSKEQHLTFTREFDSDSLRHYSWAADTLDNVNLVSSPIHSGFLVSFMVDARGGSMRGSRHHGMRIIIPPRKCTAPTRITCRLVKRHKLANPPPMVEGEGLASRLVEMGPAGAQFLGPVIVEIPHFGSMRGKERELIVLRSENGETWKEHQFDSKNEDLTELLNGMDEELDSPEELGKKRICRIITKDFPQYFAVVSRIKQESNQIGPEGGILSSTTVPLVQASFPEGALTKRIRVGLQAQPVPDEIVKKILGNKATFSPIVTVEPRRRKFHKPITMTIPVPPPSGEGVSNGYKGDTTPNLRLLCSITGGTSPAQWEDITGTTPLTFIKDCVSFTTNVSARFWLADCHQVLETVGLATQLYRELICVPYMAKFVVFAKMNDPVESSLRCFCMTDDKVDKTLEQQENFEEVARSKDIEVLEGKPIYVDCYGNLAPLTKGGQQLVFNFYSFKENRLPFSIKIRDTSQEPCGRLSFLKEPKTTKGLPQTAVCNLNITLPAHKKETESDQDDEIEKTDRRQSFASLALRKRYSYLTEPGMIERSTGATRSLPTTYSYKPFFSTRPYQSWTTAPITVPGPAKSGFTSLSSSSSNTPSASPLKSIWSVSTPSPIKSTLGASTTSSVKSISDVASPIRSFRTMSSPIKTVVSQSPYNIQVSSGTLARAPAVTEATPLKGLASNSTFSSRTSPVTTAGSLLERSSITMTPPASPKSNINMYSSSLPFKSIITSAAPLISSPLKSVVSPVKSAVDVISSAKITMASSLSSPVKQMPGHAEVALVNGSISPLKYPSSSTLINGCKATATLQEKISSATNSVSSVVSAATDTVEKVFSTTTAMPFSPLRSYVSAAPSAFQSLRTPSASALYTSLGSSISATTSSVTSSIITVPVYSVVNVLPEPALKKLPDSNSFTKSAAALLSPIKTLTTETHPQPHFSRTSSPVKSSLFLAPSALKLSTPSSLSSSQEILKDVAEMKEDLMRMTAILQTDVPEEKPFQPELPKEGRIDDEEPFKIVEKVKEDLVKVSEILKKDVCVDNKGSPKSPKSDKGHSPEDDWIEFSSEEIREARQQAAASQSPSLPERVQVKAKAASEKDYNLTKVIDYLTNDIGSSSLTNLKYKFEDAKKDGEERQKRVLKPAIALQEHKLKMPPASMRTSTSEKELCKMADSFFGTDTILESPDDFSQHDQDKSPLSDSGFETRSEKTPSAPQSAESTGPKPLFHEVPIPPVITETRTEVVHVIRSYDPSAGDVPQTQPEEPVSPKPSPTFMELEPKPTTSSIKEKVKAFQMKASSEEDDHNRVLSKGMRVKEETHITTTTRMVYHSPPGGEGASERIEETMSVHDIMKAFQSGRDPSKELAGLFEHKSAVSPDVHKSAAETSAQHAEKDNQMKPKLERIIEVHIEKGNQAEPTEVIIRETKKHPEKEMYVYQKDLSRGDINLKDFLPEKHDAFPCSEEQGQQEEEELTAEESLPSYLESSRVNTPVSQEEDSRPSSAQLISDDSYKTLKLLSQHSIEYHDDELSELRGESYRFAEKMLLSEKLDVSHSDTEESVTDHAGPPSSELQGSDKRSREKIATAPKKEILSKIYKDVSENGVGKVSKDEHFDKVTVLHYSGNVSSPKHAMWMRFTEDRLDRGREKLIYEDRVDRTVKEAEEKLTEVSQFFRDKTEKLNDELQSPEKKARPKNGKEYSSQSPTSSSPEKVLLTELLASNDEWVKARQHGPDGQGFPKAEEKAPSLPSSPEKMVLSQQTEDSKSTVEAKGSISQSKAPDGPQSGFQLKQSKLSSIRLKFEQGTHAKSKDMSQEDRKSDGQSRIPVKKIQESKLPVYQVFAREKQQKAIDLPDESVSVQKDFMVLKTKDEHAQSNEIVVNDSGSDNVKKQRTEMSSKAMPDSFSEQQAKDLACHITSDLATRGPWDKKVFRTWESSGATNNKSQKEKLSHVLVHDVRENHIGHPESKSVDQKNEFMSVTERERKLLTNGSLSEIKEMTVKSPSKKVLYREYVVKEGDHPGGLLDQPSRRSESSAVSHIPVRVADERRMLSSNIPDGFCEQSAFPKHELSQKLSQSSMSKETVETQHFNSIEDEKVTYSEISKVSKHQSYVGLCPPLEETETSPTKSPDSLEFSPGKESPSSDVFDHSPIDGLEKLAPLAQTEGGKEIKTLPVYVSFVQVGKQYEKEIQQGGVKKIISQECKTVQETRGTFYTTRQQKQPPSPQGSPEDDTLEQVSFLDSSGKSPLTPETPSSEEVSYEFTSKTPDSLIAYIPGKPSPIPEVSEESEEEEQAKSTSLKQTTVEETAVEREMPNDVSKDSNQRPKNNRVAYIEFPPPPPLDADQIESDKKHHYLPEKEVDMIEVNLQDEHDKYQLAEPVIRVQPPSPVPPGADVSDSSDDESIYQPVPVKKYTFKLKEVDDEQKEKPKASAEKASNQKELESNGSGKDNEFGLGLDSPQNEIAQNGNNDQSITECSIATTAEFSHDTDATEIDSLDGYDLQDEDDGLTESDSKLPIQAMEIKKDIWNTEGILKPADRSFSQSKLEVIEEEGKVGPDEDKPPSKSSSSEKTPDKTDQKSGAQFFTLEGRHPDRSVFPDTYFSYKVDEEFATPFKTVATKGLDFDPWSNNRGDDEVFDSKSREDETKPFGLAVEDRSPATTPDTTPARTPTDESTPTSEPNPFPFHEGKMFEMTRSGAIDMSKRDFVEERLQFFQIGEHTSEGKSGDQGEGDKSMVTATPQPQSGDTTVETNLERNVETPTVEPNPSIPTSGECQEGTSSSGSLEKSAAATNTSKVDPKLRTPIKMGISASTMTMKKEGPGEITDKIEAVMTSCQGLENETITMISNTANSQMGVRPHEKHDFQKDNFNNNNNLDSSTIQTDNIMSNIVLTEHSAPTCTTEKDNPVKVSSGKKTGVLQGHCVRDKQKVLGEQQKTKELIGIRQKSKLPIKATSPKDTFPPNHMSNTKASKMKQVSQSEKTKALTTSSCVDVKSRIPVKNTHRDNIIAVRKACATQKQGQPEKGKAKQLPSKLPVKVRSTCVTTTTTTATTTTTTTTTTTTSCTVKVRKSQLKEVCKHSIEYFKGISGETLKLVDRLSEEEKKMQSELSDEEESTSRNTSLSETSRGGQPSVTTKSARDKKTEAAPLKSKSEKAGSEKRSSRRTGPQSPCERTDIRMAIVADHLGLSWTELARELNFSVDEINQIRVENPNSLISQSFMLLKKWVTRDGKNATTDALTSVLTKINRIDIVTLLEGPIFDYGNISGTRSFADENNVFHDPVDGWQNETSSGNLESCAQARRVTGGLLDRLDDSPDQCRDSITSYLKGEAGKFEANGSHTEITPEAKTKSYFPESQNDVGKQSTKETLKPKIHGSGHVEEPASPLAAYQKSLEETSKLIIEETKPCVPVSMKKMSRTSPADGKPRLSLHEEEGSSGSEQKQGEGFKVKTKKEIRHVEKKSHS

Binder | binding result [1] | binding result [2]
B1 | no binding | 
B2 |  | no binding
